In patent US20240392035A1 (DENALI THERAPEUTICS, published 2024):

B1: anti-HER2_DIV/DII_scFv_1 (bispecific antibody, human IgG1, kappa, L234A L235A)
heavy 1: EVQLVESGGGLVQPGGSLRLSCAASGFTFTDYTMDWVRQAPGKGLEWVADVNPNSGGSIYNQRFKGRFTLSVDRSKNTLYLQMNSLRAEDTAVYYCARNLGPSFYFDYWGQGTLVTVSSASTKGPSVFPLAPSSKSTSGGTAALGCLVKDYFPEPVTVSWNSGALTSGVHTFPAVLQSSGLYSLSSVVTVPSSSLGTQTYICNVNHKPSNTKVDKKVEPKSCDKTHTCPPCPAPEAAGGPSVFLFPPKPKDTLMISRTPEVTCVVVDVSHEDPEVKFNWYVDGVEVHNAKTKPREEQYNSTYRVVSVLTVLHQDWLNGKEYKCKVSNKALPAPIEKTISKAKGQPREPQVYTLPPSRDELTKNQVSLWCLVKGFYPSDIAVEWESYGTEWSNYKTTPPVLDSDGSFFLYSKLTVSKEEWQQGFVFSCSVMHEALHNHYTQKSLSLSPGK
heavy 2: not shown
light: not shown
B2: Bispecific Protein #9 (bispecific antibody, human IgG1, kappa, L234A L235A)
heavy 1: EVQLVESGGGLVQPGGSLRLSCAASGFTFTDYTMDWVRQAPGKGLEWVADVNPNSGGSIYNQRFKGRFTLSVDRSKNTLYLQMNSLRAEDTAVYYCARNLGPSFYFDYWGQGTLVTVSSASTKGPSVFPLAPSSKSTSGGTAALGCLVKDYFPEPVTVSWNSGALTSGVHTFPAVLQSSGLYSLSSVVTVPSSSLGTQTYICNVNHKPSNTKVDKKVEPKSCDKTHTCPPCPAPEAAGGPSVFLFPPKPKDTLMISRTPEVTCVVVDVSHEDPEVKFNWYVDGVEVHNAKTKPREEQYNSTYRVVSVLTVLHQDWLNGKEYKCKVSNKALPAPIEKTISKAKGQPREPQVYTLPPSRDELTKNQVSLWCLVKGFYPSDIAVEWESYGTEWSNYKTTPPVLDSDGSFFLYSKLTVSKEEWQQGFVFSCSVMHEALHNHYTQKSLSLSPGK
heavy 2: not shown
light: not shown
B3: Bispecific Protein #2 (bispecific antibody, human IgG1, kappa, L234A L235A)
heavy 1: EVQLVESGGGLVQPGGSLRLSCAASGFTFTDYTMDWVRQAPGKGLEWVADVNPNSGGSIYNQRFKGRFTLSVDRSKNTLYLQMNSLRAEDTAVYYCARNLGPSFYFDYWGQGTLVTVSSASTKGPSVFPLAPSSKSTSGGTAALGCLVKDYFPEPVTVSWNSGALTSGVHTFPAVLQSSGLYSLSSVVTVPSSSLGTQTYICNVNHKPSNTKVDKKVEPKSCDKTHTCPPCPAPEAAGGPSVFLFPPKPKDTLMISRTPEVTCVVVDVSHEDPEVKFNWYVDGVEVHNAKTKPREEQYNSTYRVVSVLTVLHQDWLNGKEYKCKVSNKALPAPIEKTISKAKGQPREPQVYTLPPSRDELTKNQVSLWCLVKGFYPSDIAVEWESYGTEWSNYKTTPPVLDSDGSFFLYSKLTVSKEEWQQGFVFSCSVMHEALHNHYTQKSLSLSPGK
heavy 2: not shown
light: not shown

Experiments:
human TfR on cells = human TfR on cells (human, UniProt P02786 1-760); assay: cell-based or functional assay
[1] = biological target: HER2 on HER2-overexpressing tumor cell lines (UniProt P04626 23-1255, limits assumed); assay: cell-based or functional assay
[2] = biological target: T1, recombinant human TfR apical domain (human, UniProt P02786 198-378); assay: SPR (Biacore), protein captured on anti-human Fab chip, human TfR apical domain injected, 1:1 Langmuir fit
T1 construct: also called recombinant TfR apical domain; transferrin receptor protein 1
Description: Affinities of the bispecific proteins were measured by SPR using a Biacore T200 or a Biacore 8K. Biacore™ Series S CM5 sensor chips were immobilized with monoclonal mouse anti-human IgG (Fc) antibody for HER2 affinity measurements or mouse anti-human Fab for TfR affinity measurements (human antibody or Fab capture kit from GE Healthcare). Serial 3-fold dilutions of analyte (recombinant HER2 extracellular domain or recombinant TfR apical domain) were injected at a flow rate of […]. Each sample was analyzed using a 3-minute association and a 10-minute dissociation for HER2 extracellular domain binding and a 40-second association and a 3-minute dissociation for human TfR apical domain binding. After each injection, the chip was regenerated using 3 M MgCl₂ or 50 mM glycine at pH 2.0. Binding response was corrected by subtracting the RU from a flow cell capturing an irrelevant IgG at similar density. A 1:1 Languir model of simultaneous fitting of kon and koff was used for kinetics analysis. […] The two constructs are described below.

T1 sequence (P02786 198-378 limits assumed): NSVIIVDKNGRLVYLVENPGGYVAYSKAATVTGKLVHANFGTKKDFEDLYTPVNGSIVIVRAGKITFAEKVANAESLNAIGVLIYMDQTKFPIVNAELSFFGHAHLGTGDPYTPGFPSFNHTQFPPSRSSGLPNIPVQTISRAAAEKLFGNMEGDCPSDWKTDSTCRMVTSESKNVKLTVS

| Binder | maximum growth inhibition, OE19 cells, WST-1 assay (human TfR on cells) [%] | maximum growth inhibition, OE19 cells, WST-1 assay [1] [%] | Kd [2] [nM] |
| --- | --- | --- | --- |
| B1 | ~80 | ~80 |  |
| B2 |  |  | 500 |
| B3 |  |  | 480 |
